Patent US8093212B2, “Methods of treating nerve-related vision disorders by an insulinomimetic agent” (The Penn State Research Foundation, priority 2002, dated 2012)
Entries after “also recorded” stand apart in the source; their conditions may differ.

Assays:
Akt = test: Intraportal insulin injection: retinal Akt (serine 473) phosphorylation Western blot; format: in vivo, Sprague-Dawley rats; details: retina, 45 minutes post-injection, 500 μg insulin bolus via portal vein
Method: (§1) Intraportal insulin injection was performed to determine if a single bolus insulin injection, and therefore an acute elevation in circulating insulin, could activate retinal insulin receptors (IR) in vivo as it does in other tissues. Intraportal insulin injection was conducted as follows. Male Sprague-Dawley rats (Charles River, Mass.) weighing 200 350 g were fasted 18 hours prior to being anesthetized with a 10:1 ketamine:xylazine cocktail (53.5 mg/kg ketamine and 5.33 mg/kg xylazine) administered by intramuscular injection. The fasted rats were administered a 500 μg bolus of insulin, nothing (sham), or vehicle (0.9% saline) via the portal vein. […]
(§2) Tissue lysates were immunoprecipitated and immunoblotted as described by Barber et al. (2001, J. Biol. Chem. 276: 32814 32831). Tissues were homogenized in an immunoprecipitation (IP) lysis buffer (consisting of 50 mM HEPES, pH 7.3, 137 mM NaCl, 1 mM MgCl2, 2 mM NaVO4, 10 mM Na2H2P2O7, 10 mM NaF, 2 mM EDTA, 2 mM PMSF, 10 mM benzamidine, 10% glycerol, 1% NP-40, and 1 protease inhibitor tablet (Boehringer-Mannheim) per 10 mL of buffer. Homogenates were rocked 15 minutes at 4° C. and then centrifuged at 14,000 rpm at 4° C. Prior to immunoprecipitation and immunoblotting, the resulting supernatant was subjected to protein assay (Bio-Rad) and quantification. […]

[1] = molecular target: T1, insulin-like growth factor I receptor (IGF-IRβ) (Rattus norvegicus, UniProt P24062); test: Retinal explants: IGF-IRβ tyrosine phosphorylation; format: cell-based
T1 construct: from tissue; host or cells: rat retinal explants
Method: (§3) A tissue explant culture system was used to characterize insulin-signaling transduction in retina without the hindrance of the blood retinal barrier present in whole animal models. Such a tissue explant culture system was developed as follows. Rats as described in Examples 1 and 2 were anesthetized using sodium pentobarbital ([…]), and then decapitated upon loss of motor reflexes. Rat retinas were removed by cutting across the cornea, removing the lens, and squeezing the eyeball to rapidly extract the retina. Retinas were pre-incubated in MEM (Sigma) supplemented with 5 mM pyruvate and 10 mM HEPES for 15 minutes at 37° C., 5% CO2, and with gentle shaking. Ten nM insulin or vehicle was added following pre-incubation. At 2, 5, 15, and 30 minutes after insulin addition, retinas were snap-frozen in liquid nitrogen for future use.
Retinas were treated with either 1.3 nM IGF-1 or 0, 1, 10, 100, and 1000 nM insulin, and then retinal lysates were immunoprecipitated with an insulin-like growth factor I receptor (IGF-IRβ)-specific antibody, followed by PY Western blotting (shown in FIG. 6). The IGF1-R was immunoprecipitated and PY Western blotting performed as described above.

[2] = test system: IR and Akt kinase pathway; test: Subconjunctival insulin administration: retinal IR and Akt kinase pathway activation; format: in vivo, Sprague-Dawley rats
[3] = 0.0325 U/100 g insulin, subconjunctival space
Text: This route of administration bypasses the BRB for a more direct route of insulin action on retina. […] The retina was processed for IRβ PY content as described in Example 1.

[4] = molecular target: T2, insulin receptor beta-subunit (IRβ) (Rattus norvegicus, UniProt P15127); test: Retinal tissue explant culture: IRβ tyrosine phosphorylation; format: cell-based; design: from tissue; host or cells: rat retinal explants; details: 10 nM insulin
Method: as §3
To examine the time course of insulin signaling events in the tissue, insulin-treated retinas were compared to retinas that received vehicle (0.9% saline) and to untreated retinas. Tissues were analyzed by immunoprecipitation and Western blotting as described in Example 1.

[5] = molecular target: T2, insulin receptor beta-subunit (IRβ); test: Intraportal insulin injection: muscle IRβ tyrosine phosphorylation (PY Western blot); format: in vivo, Sprague-Dawley rats; design: hindquarter skeletal muscle and retina were snap-frozen under liquid nitrogen; from tissue; host or cells: rat retina; details: 500 μg insulin bolus via portal vein
Method: Intraportal insulin injection was performed to determine if a single bolus insulin injection, and therefore an acute elevation in circulating insulin, could activate retinal insulin receptors (IR) in vivo as it does in other tissues. Intraportal insulin injection was conducted as follows. Male Sprague-Dawley rats (Charles River, Mass.) weighing 200 350 g were fasted 18 hours prior to being anesthetized with a 10:1 ketamine:xylazine cocktail (53.5 mg/kg ketamine and 5.33 mg/kg xylazine) administered by intramuscular injection. The fasted rats were administered a 500 μg bolus of insulin, nothing (sham), or vehicle (0.9% saline) via the portal vein. At 15, 30, 45 and 60 minutes post injection (shown in FIG. 2A), hindquarter skeletal muscle and retina were snap-frozen under liquid nitrogen, and then stored at −80° C. pending analysis by immunoprecipitation and immunoblotting. There was no difference in insulin receptor beta-subunit (IRβ) phosphorylation between vehicle (V) and insulin (I) injection.
Tissue lysates were immunoprecipitated and immunoblotted as described by Barber et al. (2001, J. Biol. Chem. 276: 32814 32831). Tissues were homogenized in an immunoprecipitation (IP) lysis buffer (consisting of 50 mM HEPES, pH 7.3, 137 mM NaCl, 1 mM MgCl2, 2 mM NaVO4, 10 mM Na2H2P2O7, 10 mM NaF, 2 mM EDTA, 2 mM PMSF, 10 mM benzamidine, 10% glycerol, 1% NP-40, and 1 protease inhibitor tablet (Boehringer-Mannheim) per 10 mL of buffer. Homogenates were rocked 15 minutes at 4° C. and then centrifuged at 14,000 rpm at 4° C. Prior to immunoprecipitation and immunoblotting, the resulting supernatant was subjected to protein assay (Bio-Rad) and quantification.
Immunoprecipitations were performed as follows. […] Fifty μg of protein per sample were analyzed by SDS-polyacrylamide gel electrophoresis (SDS-PAGE). […] Positive signals were detected with […] (ECL) kits (Cell Signaling) and electrochemifluoresence (ECF) kits (Amersham) each performed according to each manufacturer's protocol. […]

[6] = molecular target: T2, insulin receptor beta-subunit (IRβ); test: Intraportal insulin injection: retina IRβ tyrosine phosphorylation (PY Western blot); format: in vivo, Sprague-Dawley rats; design: hindquarter skeletal muscle and retina were snap-frozen under liquid nitrogen; from tissue; host or cells: rat retina; details: 500 μg insulin bolus via portal vein, fasted rats
Method: as §1, §2

T2 sequence (P15127 764-1383 limits assumed): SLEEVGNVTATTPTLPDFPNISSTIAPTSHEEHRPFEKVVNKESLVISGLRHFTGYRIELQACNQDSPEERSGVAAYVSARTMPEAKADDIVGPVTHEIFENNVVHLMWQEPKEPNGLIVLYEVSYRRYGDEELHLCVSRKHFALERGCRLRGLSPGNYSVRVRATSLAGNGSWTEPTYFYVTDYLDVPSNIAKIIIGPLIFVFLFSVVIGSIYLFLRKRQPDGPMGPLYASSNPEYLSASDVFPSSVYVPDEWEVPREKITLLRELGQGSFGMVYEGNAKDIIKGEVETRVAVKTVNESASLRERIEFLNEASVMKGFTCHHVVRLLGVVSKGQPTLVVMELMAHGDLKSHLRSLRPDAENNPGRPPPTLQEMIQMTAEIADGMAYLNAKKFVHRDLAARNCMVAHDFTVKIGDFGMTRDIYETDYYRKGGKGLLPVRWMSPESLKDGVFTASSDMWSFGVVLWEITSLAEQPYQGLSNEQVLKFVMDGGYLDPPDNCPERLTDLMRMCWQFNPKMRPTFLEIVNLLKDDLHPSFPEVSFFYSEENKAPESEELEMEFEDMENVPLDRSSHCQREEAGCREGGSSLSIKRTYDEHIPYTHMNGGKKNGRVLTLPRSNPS
T2 sequence (P15127 27-759 limits assumed): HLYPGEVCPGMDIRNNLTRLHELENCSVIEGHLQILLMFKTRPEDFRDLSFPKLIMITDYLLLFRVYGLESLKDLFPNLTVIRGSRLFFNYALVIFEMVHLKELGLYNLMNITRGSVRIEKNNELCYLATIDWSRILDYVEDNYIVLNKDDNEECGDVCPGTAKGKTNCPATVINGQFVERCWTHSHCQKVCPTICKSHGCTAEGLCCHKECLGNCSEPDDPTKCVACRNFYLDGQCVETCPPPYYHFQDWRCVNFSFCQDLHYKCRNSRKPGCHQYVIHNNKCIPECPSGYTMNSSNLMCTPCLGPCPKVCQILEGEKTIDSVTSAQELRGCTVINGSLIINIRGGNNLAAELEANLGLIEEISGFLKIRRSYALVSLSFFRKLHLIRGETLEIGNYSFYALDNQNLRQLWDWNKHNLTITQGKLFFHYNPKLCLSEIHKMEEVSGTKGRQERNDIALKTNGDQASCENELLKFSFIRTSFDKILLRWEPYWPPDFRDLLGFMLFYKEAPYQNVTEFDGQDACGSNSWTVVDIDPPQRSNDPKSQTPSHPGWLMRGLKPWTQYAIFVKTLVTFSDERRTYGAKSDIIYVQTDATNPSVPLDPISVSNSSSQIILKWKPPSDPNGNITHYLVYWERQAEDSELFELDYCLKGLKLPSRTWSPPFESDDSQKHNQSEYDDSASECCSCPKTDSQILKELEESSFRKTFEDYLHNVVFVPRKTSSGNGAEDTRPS
T1 sequence (P24062 742-1370 limits assumed): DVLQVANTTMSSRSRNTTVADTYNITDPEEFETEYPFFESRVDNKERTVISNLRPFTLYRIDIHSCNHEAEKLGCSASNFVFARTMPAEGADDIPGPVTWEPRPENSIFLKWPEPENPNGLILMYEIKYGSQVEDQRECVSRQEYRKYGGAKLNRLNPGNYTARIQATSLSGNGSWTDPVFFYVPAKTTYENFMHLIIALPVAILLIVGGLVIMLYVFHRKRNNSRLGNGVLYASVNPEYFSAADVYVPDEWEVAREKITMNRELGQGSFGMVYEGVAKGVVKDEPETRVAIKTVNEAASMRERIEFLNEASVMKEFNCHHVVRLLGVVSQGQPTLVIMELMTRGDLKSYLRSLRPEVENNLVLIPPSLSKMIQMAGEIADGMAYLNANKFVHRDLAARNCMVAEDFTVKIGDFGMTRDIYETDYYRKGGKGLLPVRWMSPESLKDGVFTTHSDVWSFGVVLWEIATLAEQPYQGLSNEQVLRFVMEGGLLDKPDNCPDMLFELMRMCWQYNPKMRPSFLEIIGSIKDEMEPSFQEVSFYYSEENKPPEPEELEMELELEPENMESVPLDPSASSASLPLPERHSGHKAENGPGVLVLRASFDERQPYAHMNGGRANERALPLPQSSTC
T1 sequence (P24062 31-737 limits assumed): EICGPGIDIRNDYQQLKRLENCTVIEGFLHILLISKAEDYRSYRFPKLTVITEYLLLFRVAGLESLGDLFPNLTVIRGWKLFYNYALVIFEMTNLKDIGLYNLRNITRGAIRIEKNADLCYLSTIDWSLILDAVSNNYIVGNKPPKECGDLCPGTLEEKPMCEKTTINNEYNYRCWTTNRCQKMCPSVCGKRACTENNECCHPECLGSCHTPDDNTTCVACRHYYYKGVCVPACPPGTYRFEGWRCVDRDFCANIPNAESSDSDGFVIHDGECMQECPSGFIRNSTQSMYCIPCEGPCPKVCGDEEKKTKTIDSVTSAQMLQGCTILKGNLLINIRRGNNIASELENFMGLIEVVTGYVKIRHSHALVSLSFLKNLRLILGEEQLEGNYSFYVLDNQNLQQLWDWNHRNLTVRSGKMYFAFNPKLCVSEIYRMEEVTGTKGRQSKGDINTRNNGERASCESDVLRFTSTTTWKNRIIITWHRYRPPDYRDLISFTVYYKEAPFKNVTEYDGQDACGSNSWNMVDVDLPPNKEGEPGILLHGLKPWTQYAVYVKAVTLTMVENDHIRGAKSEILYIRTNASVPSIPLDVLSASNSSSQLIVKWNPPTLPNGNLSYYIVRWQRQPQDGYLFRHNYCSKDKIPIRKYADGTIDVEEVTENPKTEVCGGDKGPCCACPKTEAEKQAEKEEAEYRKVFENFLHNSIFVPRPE

For insulin, the “increase in phosphoserine 473 content of Akt over vehicle injected controls” value (Akt) was 48%, the IGF-IRβ phosphorylation ([1]; 10 nM insulin) was “remained unchanged” and the IGF-IRβ phosphorylation ([1]; 100 nM insulin, comparator 1.3 nM IGF-1) was “increased”. The “activation of the IR and Akt kinase pathway” value ([2]; 0.0325 U/100 g insulin, subconjunctival space, normal rats) was “activated”, the “retinal IRβ PY content, insulin eye compared to contralateral vehicle eye” value ([2]; subconjunctival insulin, FIG. 8) was “phosphorylated” and the “effect on blood glucose values” [3] was “without lowering blood glucose values”. The “retinal IRβ phosphotyrosine immunoreactivity, fold greater than baseline” value ([4]; 30 minute time point) was 3 fold, the “retinal IRβ phosphotyrosine immunoreactivity, fold greater” value ([4]; within 2 minutes of stimulation, normalized to total IRβ) was ~4 fold and the “retinal explant IRβ phosphorylation (qualitative)” value ([4]; 2, 5, 15 and 30 minutes, normalized to total IRβ) was “significant increase”. For the same substance, the “time of peak muscle IRβ phosphotyrosine increase” value ([5]; fasted rats) was 30 min, the “increase in phosphotyrosine content in muscle IRβ (PY/IRβ ratio)” value ([5]; fasted rats, 15 minutes post-injection, zero time point set to 1) was ~30 fold and the “muscle IRβ phosphorylation response (qualitative)” value ([5]; 15, 30, 45 and 60 minutes post injection) was “robust response; also recorded: significant increase”. For the same substance, the “time of maximal retinal IRβ tyrosine phosphorylation” value [6] was 45 min and the “time until retinal IRβ tyrosine phosphorylation increased” value [6] was 30 min.
